# Test results taken from patent US20110237779A1.
# Target: human IgE (human) (UniProt P01854)
# Test: phage ELISA, solution competition: Fab-phage incubated with serially diluted IgE, unbound phage captured on IgE-coated wells; IC50 used as affinity estimate
# Sequence of human IgE (human) (P01854 other isoform, or with tags, fused parts or gaps): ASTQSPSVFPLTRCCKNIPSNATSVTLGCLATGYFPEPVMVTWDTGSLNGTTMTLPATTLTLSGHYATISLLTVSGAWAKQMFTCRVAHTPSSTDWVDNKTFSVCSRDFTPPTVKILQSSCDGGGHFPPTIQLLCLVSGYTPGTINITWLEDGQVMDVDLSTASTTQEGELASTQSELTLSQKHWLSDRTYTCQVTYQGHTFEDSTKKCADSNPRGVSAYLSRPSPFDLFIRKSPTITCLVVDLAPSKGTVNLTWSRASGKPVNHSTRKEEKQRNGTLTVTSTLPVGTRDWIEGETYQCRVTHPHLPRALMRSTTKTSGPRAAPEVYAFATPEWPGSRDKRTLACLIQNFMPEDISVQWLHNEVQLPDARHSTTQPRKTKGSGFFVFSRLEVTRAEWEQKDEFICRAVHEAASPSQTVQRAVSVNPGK
substance,measurement,value
Mae11-based hypervariable region graft with S34K and W35L in CDR-H1 of the VH domain (Fab displayed on phage),IC50,4 nM
